Data on three substances can be found in article PMC9493720.

Assay [1] has as its target human surfactant protein A (SP-A), native, supratrimeric (human) (UniProt Q8IWL2). The assay can be described thus: other fluorescence titration; intrinsic tryptophan fluorescence of SP-A (15 nM) or rfhSP-A (0.3 μM), polymyxin added at increasing concentrations, 25°C, 5 mM Tris-HCl pH 7.4 with 150 mM NaCl; apparent KD from the Hill equation.
For assay [2], the target named is recombinant trimeric fragment of human SP-A1 (rfhSP-A) (human). The assay can be described thus: other fluorescence titration; intrinsic tryptophan fluorescence of rfhSP-A, PMB added, 25°C, 5 mM Tris-HCl pH 7.4 without NaCl; apparent KD from the Hill equation.
In assay [3] the target is human surfactant protein A (SP-A), native, supratrimeric (human) (UniProt Q8IWL2). The assay can be described thus: native gel or EMSA + other: electron microscopy + AUC; degree of oligomerization of isolated SP-A; electrophoresis under nondenaturing conditions, electron microscopy and analytical ultracentrifugation.

A value given as a limit tells only on which side of the number the result lay.

Regarding polymyxin B nonapeptide (PMBN), the Kd in assay [1] amounted to 260 nM.
Turning to polymyxin B (PMB) (peptide), the results for the Kd in assay [1] and in assay [2] were 320 nM and 1370 nM, respectively.
“human surfactant protein A (SP-A), native, supratrimeric (from UniProt Q8IWL2 21-248) (natural protein)”: the stoichiometry N (usually a count of units in the complex or per binding partner) in assay [3] was over 18.
